Our source for the Kd and inhibition values is publication PMC2582960, “A Structural Model of the Staphylococcus aureus ClfA–Fibrinogen Interaction Opens New Avenues for the Design of Anti-Staphylococcal Therapeutics” (PLoS Pathogens, 2008).

Test [1] deals with GST-Fg γ^1–17 (residues 395–411 of the Fg γ-chain fused to a GST protein) (human) (UniProt P02679). The test can be described thus: ELISA; human Fg or GST fusion protein coated (1 µg/well); His-tagged ClfA added in increasing concentrations in HBS (10 mM HEPES, 100 mM NaCl, 3 mM EDTA, pH 7.4), 25°C, 1 h; bound ClfA detected with anti-His antibodies; apparent Kd. In general terms: In an ELISA, binding on a coated surface is turned into a signal by an enzyme label.

The target is the same in test [2]. Described as above. This is another data set of the same source.
The target of test [3] is human fibrinogen (Fg), full length (human) (UniProt P02671). The description is as above.
The target in test [4] is ClfA_(229–545) (clumping factor A, N2N3 domains) (Staphylococcus aureus strain Newman) (UniProt Q53653). The test can be described thus: ITC. (In ITC the heat of successive injections is recorded.)
Test [5] deals with T1, ClfA229–545 (Staphylococcus aureus, UniProt Q53653).
T1 sequence (Q53653 229-545): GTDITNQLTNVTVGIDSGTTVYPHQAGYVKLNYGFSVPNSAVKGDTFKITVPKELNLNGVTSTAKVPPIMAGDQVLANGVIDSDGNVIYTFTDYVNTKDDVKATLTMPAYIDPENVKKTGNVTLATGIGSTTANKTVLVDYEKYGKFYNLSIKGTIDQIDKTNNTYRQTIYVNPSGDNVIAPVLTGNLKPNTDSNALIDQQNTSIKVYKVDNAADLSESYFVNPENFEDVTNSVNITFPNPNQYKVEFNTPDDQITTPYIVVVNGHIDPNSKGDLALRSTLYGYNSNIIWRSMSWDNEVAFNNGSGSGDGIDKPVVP
The test can be described thus: Isothermal titration calorimetry of ClfA229–545 with soluble Fg peptides. Set-up: a smaller ClfA construct (229–545) predicted to be composed only of the N2 N3 domains; His tag (pQE-30 vector) (N); made in house; host or cells: Escherichia coli XL-1 Blue. The following applies: ITC, 30 µM ClfA in cell, 500–600 µM peptide in syringe, HBS pH 7.4, 30°C, single binding site model; read-out: Kd of peptide binding to ClfA229–545 in solution (ITC). On the procedure:
The interaction between ClfA proteins and soluble Fg peptides was analyzed by Isothermal titration calorimetry (ITC) using a VP-ITC microcalorimeter (MicroCal). The cell contained 30 µM ClfA and the syringe contained 500–600 µM peptide in HBS buffer (10 mM HEPES, 150 mM NaCl, pH 7.4). All samples were degassed for 5 min. The titration was performed at 30°C using a preliminary injection of 5 µl followed by 30 injections of 10 µl with an injection speed of 0.5 µl/sec. The stirring speed was 300 rpm. Data were fitted to a single binding site model and analyzed using Origin version 5 (MicroCal) software.

Test [6] concerns the target T1, ClfA229–545. The test can be described thus: Solid-phase inhibition assay: Fg γ peptides inhibit ClfA binding to immobilized GST-Fg γ^1–17. To be noted: read-out: inhibition of ClfA binding to immobilized GST-Fg γ^1–17. Set-up: a smaller ClfA construct (229–545) predicted to be composed only of the N2 N3 domains; His tag (pQE-30 vector) (N); made in house; host or cells: Escherichia coli XL-1 Blue.
Experimental: To identify specific residues in Fg that are important for binding to ClfA229–545, a panel of peptides (Fig. 1A) based on the Fg γ-chain sequence 395–411 (referred to as γ^1–17) were synthesized in which each position was sequentially substituted with an alanine residue (alanines 11 and 14 were changed to serines). These peptides were tested as inhibitors in solid-phase binding assays, using a peptide concentration giving about 50% inhibition by the wild-type peptide.
(§1) ClfA229–545 (100 nM) was pre-incubated with wild-type Fg γ^1–17 peptide (WT γ^1–17) or the P1 (G1A) to P17 (V17A) mutant peptide (50 µM) for 1 hr.
Immulon 4HBX Microtiter plates (Thermo) were coated with human Fg (1 µg/well) in HBS (10 mM HEPES, 100 mM NaCl, 3 mM EDTA, pH 7.4) over-night at 4°C. The wells were washed with HBS containing 0.05% (w/v) Tween-20 (HBST) and blocked with 5% (w/v) BSA in HBS for 1 h at 25°C. […] After incubation, the plates were washed 3 times with HBST. Anti-His antibodies (GE Healthcare) were added (1∶3000 in HBS) and the plates were incubated at 25°C for 1 h. […] The wells were washed 3 times with HBST and AP-conjugated polyclonal antibodies were detected by addition of p-nitrophenyl phosphate (Sigma) in 1 M diethanolamine (0.5 mM MgCl2, pH 9.8) and incubated at 25°C for 30–60 min. The plates were read at 405 nm in a ELISA plate reader (Thermomax, Molecular Devices). […]

For test [7], the target named is T1, ClfA229–545. The following applies: read-out: Kd of ClfA229–545 binding to immobilized GST fusion protein; solid-phase assay, 1 µg GST fusion per well, increasing rClfA229–545, anti-His detection (Fig. 1C).
Experimental: as §1
Immulon 4HBX Microtiter plates (Thermo) were coated with human Fg (1 µg/well) in HBS (10 mM HEPES, 100 mM NaCl, 3 mM EDTA, pH 7.4) over-night at 4°C. The wells were washed with HBS containing 0.05% (w/v) Tween-20 (HBST) and blocked with 5% (w/v) BSA in HBS for 1 h at 25°C. […] After incubation, the plates were washed 3 times with HBST. Anti-His antibodies (GE Healthcare) were added (1∶3000 in HBS) and the plates were incubated at 25°C for 1 h. The wells were subsequently washed 3 times with HBST and incubated with goat anti-mouse-AP secondary antibodies (diluted 1∶3000 in HBS; Bio-Rad) at 25°C for 1 h. The wells were washed 3 times with HBST and AP-conjugated polyclonal antibodies were detected by addition of p-nitrophenyl phosphate (Sigma) in 1 M diethanolamine (0.5 mM MgCl2, pH 9.8) and incubated at 25°C for 30–60 min. The plates were read at 405 nm in a ELISA plate reader (Thermomax, Molecular Devices). For the inhibition assays, recombinant ClfA229–545 was pre-incubated with Fg γ peptides in HBS for 1 h at 37°C.
The target in test [8] is T2, ClfA_(229–545) (clumping factor A, N2N3 domains) (Staphylococcus aureus strain Newman, UniProt Q53653 229-545).
T2 chain: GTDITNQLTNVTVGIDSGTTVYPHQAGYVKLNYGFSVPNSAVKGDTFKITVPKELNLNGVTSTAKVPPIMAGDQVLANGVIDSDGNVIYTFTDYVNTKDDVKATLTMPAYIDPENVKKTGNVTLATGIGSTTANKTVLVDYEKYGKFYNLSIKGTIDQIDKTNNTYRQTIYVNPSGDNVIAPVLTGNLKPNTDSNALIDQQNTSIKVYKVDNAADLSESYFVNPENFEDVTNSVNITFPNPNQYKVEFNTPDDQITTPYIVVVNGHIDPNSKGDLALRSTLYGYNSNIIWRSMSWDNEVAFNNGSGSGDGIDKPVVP
Put plainly: ITC.

Where two headings read alike, the source gives them in different places. Where no end group is shown, it is not given here.

human fibrinogen (Fg), full length (human), sequence (P02671 other isoform, or with tags, fused parts or gaps, chain 1 of 3): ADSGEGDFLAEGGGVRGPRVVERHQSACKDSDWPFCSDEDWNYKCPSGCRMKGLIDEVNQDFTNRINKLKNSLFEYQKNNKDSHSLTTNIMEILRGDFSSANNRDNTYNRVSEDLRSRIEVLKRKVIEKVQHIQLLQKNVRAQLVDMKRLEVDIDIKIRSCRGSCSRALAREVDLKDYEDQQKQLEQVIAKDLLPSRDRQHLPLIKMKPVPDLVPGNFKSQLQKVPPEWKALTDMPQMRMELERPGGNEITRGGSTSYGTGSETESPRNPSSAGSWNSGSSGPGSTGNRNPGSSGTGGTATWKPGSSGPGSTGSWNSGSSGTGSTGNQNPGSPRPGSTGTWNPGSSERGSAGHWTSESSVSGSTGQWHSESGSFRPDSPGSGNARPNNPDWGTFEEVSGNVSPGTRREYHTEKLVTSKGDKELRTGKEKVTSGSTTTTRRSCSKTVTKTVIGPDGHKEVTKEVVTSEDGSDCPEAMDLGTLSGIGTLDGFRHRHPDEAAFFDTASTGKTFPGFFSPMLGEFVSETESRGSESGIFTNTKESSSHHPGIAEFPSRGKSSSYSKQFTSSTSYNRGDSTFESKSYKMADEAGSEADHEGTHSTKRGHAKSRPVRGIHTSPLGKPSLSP
human fibrinogen (Fg), full length (human), sequence (P02675 31-491, chain 2 of 3, further chain): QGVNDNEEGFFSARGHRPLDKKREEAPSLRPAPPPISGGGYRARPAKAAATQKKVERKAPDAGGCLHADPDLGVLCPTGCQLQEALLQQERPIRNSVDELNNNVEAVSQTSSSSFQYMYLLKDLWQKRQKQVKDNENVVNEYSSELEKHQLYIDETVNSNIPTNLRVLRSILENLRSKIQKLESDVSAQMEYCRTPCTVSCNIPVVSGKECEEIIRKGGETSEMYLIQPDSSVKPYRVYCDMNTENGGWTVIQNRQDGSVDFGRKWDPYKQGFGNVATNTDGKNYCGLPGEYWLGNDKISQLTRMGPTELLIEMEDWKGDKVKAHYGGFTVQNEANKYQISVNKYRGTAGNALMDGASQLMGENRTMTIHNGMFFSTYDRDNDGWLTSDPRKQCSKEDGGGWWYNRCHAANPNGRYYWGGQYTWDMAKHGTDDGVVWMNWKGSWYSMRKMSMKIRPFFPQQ
human fibrinogen (Fg), full length (human), sequence (P02679 other isoform, or with tags, fused parts or gaps, chain 3 of 3, further chain): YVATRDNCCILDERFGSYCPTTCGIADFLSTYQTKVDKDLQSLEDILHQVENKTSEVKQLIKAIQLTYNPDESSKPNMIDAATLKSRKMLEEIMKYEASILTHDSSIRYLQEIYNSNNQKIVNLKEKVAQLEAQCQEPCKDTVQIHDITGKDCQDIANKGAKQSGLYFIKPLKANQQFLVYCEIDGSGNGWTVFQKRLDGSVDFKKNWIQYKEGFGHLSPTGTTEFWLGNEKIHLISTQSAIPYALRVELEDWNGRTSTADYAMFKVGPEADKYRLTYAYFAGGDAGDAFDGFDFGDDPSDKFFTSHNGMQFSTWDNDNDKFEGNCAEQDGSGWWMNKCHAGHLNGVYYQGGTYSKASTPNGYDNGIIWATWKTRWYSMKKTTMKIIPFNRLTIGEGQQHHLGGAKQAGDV

As for “ClfA_(229–545) (clumping factor A, N2N3 domains) (from UniProt Q53653 229-545) (domain or fragment)”, the Kd in test [1] was 0.657 µM; in test [2] it was 0.222 µM.
Take “ClfA_((229–545)D327C/K541C), stable closed conformation (from UniProt Q53653 229-545) (domain or fragment)”: the results for the Kd in test [2] and in test [3] were 0.02 µM and 0.034 µM, respectively.
In test [4], “Fg γ^1–17 peptide, wild type (Fg γ-chain 395–411) (from UniProt P02679-2 421-437)” displayed a Kd of 5.8 µM.
As for GEGQQHHLGGAKQAGAV [γ^1–17 D16A], the Kd on ClfA229–545 [5] was 3 µM.
As for GEGQQHHLGGAKQAGDV [WT γ^1–17], the inhibition at 50 µM at ClfA229–545 [6] was ~50%. Moreover, the Kd at ClfA229–545 [5] was 5.8 µM.
In the case of “GST-Fg γ^1–17: recombinant form of residues 395–411 of the Fg γ-chain fused to a GST protein (GEGQQHHLGGAKQAGDV; also: fused to GST, end not given here)”, the Kd in the test with ClfA229–545 [7] was found to be 0.657 µM.

B1: Fg γ^5–17 _(D16A) peptide (13 residues) (peptide)
chain: QHHLGGAKQAGAV
B1 yielded a Kd in test [8] of 10.5 µM.

B2: Fg γ^1–17 _(D16A) peptide truncated by 2 amino acids at the N-terminus (peptide)
chain: GQQHHLGGAKQAGAV
For the molecule B2, in test [8], the Kd was 8.8 µM.

B3: Fg γ^1–17 _(D16A) peptide truncated by 6 amino acids at the N-terminus (peptide)
chain: HLGGAKQAGAV
The molecule B3 had a Kd in test [8] of 22.5 µM.

Usually inhibition stands for how much of the control response was suppressed.
